From paper PMC3093450

Molecular target: GST-Sec23p (yeast) (UniProt P15303)
Assay: pull-down

GST-Sec23p (yeast), sequence (P15303 2-768): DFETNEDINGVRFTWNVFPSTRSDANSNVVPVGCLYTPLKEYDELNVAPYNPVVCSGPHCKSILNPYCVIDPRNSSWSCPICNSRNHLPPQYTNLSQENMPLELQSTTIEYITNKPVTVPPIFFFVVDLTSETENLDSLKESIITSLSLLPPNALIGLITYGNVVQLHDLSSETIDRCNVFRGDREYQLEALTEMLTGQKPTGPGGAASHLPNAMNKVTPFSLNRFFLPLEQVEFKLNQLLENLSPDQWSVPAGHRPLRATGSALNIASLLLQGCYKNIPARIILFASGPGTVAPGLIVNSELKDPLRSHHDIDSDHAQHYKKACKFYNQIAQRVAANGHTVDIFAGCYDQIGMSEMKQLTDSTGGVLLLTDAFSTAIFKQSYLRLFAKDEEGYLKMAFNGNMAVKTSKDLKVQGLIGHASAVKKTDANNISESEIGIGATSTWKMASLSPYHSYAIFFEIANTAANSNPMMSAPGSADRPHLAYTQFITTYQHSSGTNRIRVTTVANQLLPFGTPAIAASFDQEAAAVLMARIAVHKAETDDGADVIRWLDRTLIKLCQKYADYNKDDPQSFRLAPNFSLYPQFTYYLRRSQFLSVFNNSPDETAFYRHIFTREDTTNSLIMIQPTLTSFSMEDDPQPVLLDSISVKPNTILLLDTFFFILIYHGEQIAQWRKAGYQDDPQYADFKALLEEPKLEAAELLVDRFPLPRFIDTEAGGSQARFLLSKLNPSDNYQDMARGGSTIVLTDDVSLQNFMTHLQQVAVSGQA

Substance “TRAPPI complex (from UniProt P36149 1-193)” has a Kd of 0.63 µM.
